The assay concerns the target T1, purified SEMA7A (Homo sapiens, UniProt O75326).
T1 construct: Fc; made in house; host or cells: cells stably transfected with SEMA7A-Fc plasmid (human breast cancer cells); purified from medium
T1 sequence (O75326 45-648 limits assumed): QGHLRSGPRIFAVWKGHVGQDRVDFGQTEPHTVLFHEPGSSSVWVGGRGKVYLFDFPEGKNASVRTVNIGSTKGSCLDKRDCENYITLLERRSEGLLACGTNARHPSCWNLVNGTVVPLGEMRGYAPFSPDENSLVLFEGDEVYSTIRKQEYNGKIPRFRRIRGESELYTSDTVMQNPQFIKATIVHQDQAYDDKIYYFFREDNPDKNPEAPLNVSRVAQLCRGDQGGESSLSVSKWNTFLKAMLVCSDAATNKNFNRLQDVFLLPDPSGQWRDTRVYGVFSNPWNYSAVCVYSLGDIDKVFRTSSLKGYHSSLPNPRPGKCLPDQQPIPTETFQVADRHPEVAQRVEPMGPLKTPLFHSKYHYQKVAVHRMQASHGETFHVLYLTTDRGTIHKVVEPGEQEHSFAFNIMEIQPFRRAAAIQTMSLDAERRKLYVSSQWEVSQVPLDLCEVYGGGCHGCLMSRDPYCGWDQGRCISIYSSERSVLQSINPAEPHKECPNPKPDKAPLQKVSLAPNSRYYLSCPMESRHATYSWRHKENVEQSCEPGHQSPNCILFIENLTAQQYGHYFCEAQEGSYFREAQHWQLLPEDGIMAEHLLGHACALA
Briefly: ELISA binding to purified SEMA7A. The protocol: The MultiSorp ELISA 96 well ELISA plate (Thermo Scientific) was coated with 100 μl per well of 50 μg/ml of purified SEMA7A in Coating Buffer A (Thermo Scientific CB07100) and allowed to attach overnight with gentle rocking at 4 degrees. For the peptide competition, half of the antibody was incubated in an Eppendorf tube overnight at a ratio of 1:10 with the SEMA7A peptide on a rotator at 4 degrees. The plate was washed with 200 μl per well of 1× wash buffer (Thermo Scientific WB01) and blocked with 200 μl 1× assay buffer (Thermo Scientific DS98200) for 2 hours and room temp with gentle rocking. 1× assay buffer was removed and a 200 μl serial dilution of SMEA7A mAb in 1× assay buffer was made from columns 1 through 9, with column 10-12 getting 1× assay buffer only. The plate was incubated overnight with gentle rocking at 4 degrees. The plate was washed twice with 200 μl of 1× wash buffer. 100 μl of 200 ng/ml Goat Anti-Mouse IgG HRP (Abcam 97040) in 1× assay buffer was added to columns 1-11, with column 12 getting 1× assay buffer only. The plate was incubated for 2 hours with gentle rocking at room temp. The plate was washed four times with 200 μl 1× wash buffer. 150 μl SuperSignal Femto for ELISA (Thermo Scientific) was mixed 1:1 added to each well and mixed for 1 min and then left to rock at room temperature for 30 minutes. The absorbance was read at 425 nm on a microplate reader.

B1: recombinant anti-SEMA7A monoclonal antibody: recombinant anti-SEMA7A monoclonal antibody; illustrative recombinant heavy chain SEQ ID NO: 28, light chain SEQ ID NO: 29 (antibody)
heavy: EVQLQQSGTVLARPGASVKMSCKASGYSFTSYWMHWVKQRPGQGLEWIGAIYPGNSDTSYNQKFKGKAKLTAVTSASTAYMELSSLTNEDSAVYYCTRGGAPTMITAYYAMDYWGQGTSVTVSSAKTTPPSVYPLAPGSAAQTNSMVTLGCLVKGYFPEPVTVTWNSGSLSSGVHTFPAVLQSDLYTLSSSVTVPSSTWPSETVTCNVAHPASSTKVDKKIVPRDCGCKPCICTVPEVSSVFIFPPKPKDVLTITLTPKVTCVVVDISKDDPEVQFSWFVDDVEVHTAQTQPREEQFNSTFRSVSELPIMHQDWLNGKEFKCRVNSAAFPAPIEKTISKTKGRPKAPQVYTIPPPKEQMAKDKVSLTCMITDFFPEDITVEWQWNGQPAENYKNTQPIMDTDGSYFVYSKLNVQKSNWEAGNTFTCSVLHEGLHNHHTEKSLSHSPGK
light: DIQMTQTTSSLSASLGDRVTISCRASQDISNYLNWYQQKPDGTVKLLIYYTSRLHSGVPSRFSGSGSGTDYSLTISNLEQEDIATYFCQQGNTLPWTFGGGTKLEIKRADAAPTVSIFPPSSEQLTSGGASVVCFLNNFYPKDINVKWKIDGSERQNGVLNSWTDQDSKDSTYSMSSTLTLTKDEYERHNSYTCEATHKTSTSPIVKSFNRNEC
As to B1, the “binding to purified SEMA7A in presence of immunizing peptide” value (10× immunizing peptide) was “blocked this ability”. The “binding to purified SEMA7A” value (serial dilution) was “bound to purified SEMA7A in a dose dependent manner”.

Values taken from US20250206839A1, “METHODS, COMPOSITIONS AND USES FOR SEMA7A MONOCLONAL ANTIBODIES” (THE REGENTS OF THE UNIVERSITY OF COLORADO, A BODY CORPORATE, priority 2022, published 2025).
